Measurements reported in US20190309059A1 (SHANGHAI PHARMAEXPLORER, published 2019).

Experiments:
[1] = molecular target: his-labeled human IL-13 (immunogen A) (human) (UniProt P35225); assay: cell-based or functional assay
[2] = molecular target: his-labeled human IL-13 (immunogen A) (human) (UniProt P35225); assay: FACS blocking, biotin-IL-13 on IL-13Ra1/IL-4Ra HEK293 cells; antibody at 166.67 nM
[3] = molecular target: his-labeled human IL-13 (immunogen A) (human) (UniProt P35225); assay: FACS blocking, biotin-IL-13 on IL-13Ra1/IL-4Ra HEK293 cells; antibody at 0.05 nM
[4] = molecular target: his-labeled human IL-13 (immunogen A) (human) (UniProt P35225); assay: FACS blocking, biotin-IL-13 on IL-13Ra2 HEK293 cells; antibody at 0.05 nM
[5] = molecular target: his-labeled human IL-13 (immunogen A) (human) (UniProt P35225); assay: FACS blocking, biotin-IL-13 on IL-13Ra2 HEK293 cells; antibody at 1.33 nM
[6] = molecular target: his-labeled human IL-13 (immunogen A) (human) (UniProt P35225); assay: FACS blocking, biotin-IL-13 on IL-13Ra2 HEK293 cells; antibody at 166.67 nM
[7] = molecular target: his-labeled human IL-13 (immunogen A) (human) (UniProt P35225); assay: FACS blocking, biotin-IL-13 on IL-13Ra1/IL-4Ra HEK293 cells; antibody at 0.002 nM
[8] = molecular target: his-labeled human IL-13 (immunogen A) (human) (UniProt P35225); assay: FACS blocking, biotin-IL-13 on IL-13Ra2 HEK293 cells; antibody at 33.33 nM
[9] = molecular target: his-labeled human IL-13 (immunogen A) (human) (UniProt P35225); assay: FACS blocking assay: antibody titrated with biotin-labeled immunogen A (20 ng/mL); blocked partner IL-13Ra2 on HEK293 clone 1A1; Alexa 488 streptavidin
[10] = molecular target: his-labeled human IL-13 (immunogen A) (human) (UniProt P35225); assay: FACS blocking, biotin-IL-13 on IL-13Ra2 HEK293 cells; antibody at 0.01 nM
[11] = molecular target: his-labeled human IL-13 (immunogen A) (human) (UniProt P35225); assay: FACS blocking assay: antibody titrated with biotin-labeled immunogen A (30 ng/mL); blocked partner IL-13Ra1/IL-4Ra on HEK293 clone 4C1; Alexa 488 streptavidin
[12] = molecular target: his-labeled human IL-13 (immunogen A) (human) (UniProt P35225); assay: FACS blocking, biotin-IL-13 on IL-13Ra1/IL-4Ra HEK293 cells; antibody at 1.33 nM
[13] = molecular target: his-labeled human IL-13 (immunogen A) (human) (UniProt P35225); assay: FACS blocking, biotin-IL-13 on IL-13Ra1/IL-4Ra HEK293 cells; antibody at 0.01 nM
[14] = molecular target: his-labeled human IL-13 (immunogen A) (human) (UniProt P35225); assay: FACS blocking, biotin-IL-13 on IL-13Ra2 HEK293 cells; antibody at 6.67 nM
[15] = molecular target: his-labeled human IL-13 (immunogen A) (human) (UniProt P35225); assay: SPR (Biacore), antibody captured by anti-human Fc, immunogen A as analyte
[16] = molecular target: his-labeled human IL-13 (immunogen A) (human) (UniProt P35225); assay: FACS blocking, biotin-IL-13 on IL-13Ra1/IL-4Ra HEK293 cells; antibody at 6.67 nM
[17] = molecular target: his-labeled human IL-13 (immunogen A) (human) (UniProt P35225); assay: SPR (Biacore)
[18] = molecular target: his-labeled human IL-13 (immunogen A) (human) (UniProt P35225); assay: FACS blocking, biotin-IL-13 on IL-13Ra2 HEK293 cells; antibody at 0.002 nM
[19] = molecular target: his-labeled human IL-13 (immunogen A) (human) (UniProt P35225); assay: FACS blocking, biotin-IL-13 on IL-13Ra1/IL-4Ra HEK293 cells; antibody at 0.27 nM
[20] = molecular target: his-labeled human IL-13 (immunogen A) (human) (UniProt P35225); assay: FACS blocking, biotin-IL-13 on IL-13Ra1/IL-4Ra HEK293 cells; antibody at 33.33 nM
[21] = molecular target: his-labeled human IL-13 (immunogen A) (human) (UniProt P35225); assay: FACS blocking, biotin-IL-13 on IL-13Ra2 HEK293 cells; antibody at 0.27 nM
[22] = molecular target: his-labeled human IL-13R130Q variant (human) (UniProt P35225); assay: ELISA, IL-13R130Q variant; antibody at 2.67 nM
[23] = molecular target: his-labeled human IL-13R130Q variant (human) (UniProt P35225); assay: ELISA, IL-13R130Q variant; antibody at 0.004 nM
[24] = molecular target: his-labeled human IL-13R130Q variant (human) (UniProt P35225); assay: ELISA, IL-13R130Q variant; antibody at 0.11 nM
[25] = molecular target: his-labeled human IL-13R130Q variant (human) (UniProt P35225); assay: ELISA, IL-13R130Q variant; antibody at 66.67 nM
[26] = molecular target: his-labeled human IL-13R130Q variant (human) (UniProt P35225); assay: ELISA, IL-13R130Q variant; antibody at 13.33 nM
[27] = molecular target: his-labeled human IL-13R130Q variant (human) (UniProt P35225); assay: ELISA, IL-13R130Q variant; antibody at 0.021 nM
[28] = molecular target: his-labeled human IL-13R130Q variant (human) (UniProt P35225); assay: ELISA, IL-13R130Q variant; antibody at 0.53 nM

Chain of his-labeled human IL-13R130Q variant (human) (P35225 other isoform, or with tags, fused parts or gaps mutant): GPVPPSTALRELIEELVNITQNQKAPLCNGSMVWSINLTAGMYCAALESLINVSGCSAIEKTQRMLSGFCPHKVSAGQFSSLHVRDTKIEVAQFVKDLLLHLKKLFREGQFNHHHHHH

B1: c70F10A10 (mouse-human chimeric IL-13 antibody) (antibody, V domains shown)
VH: QIQLQQSGAELARPGASVKLSCKASGYTFTSYGISWVKQRDGQGLEWIGEIYPRSGNTDYNEKFKGKATLTADKSSSTAYMELRSLTSEDSAVYFCSSFTTLVPTDYFDYWGQGTTLTVSS
VL: DIMMSQSPSSLAVSVGEKVSMTCKSSQSLLYSSNQKNYLAWYQQKPGQSPKMLIYWASTRETGVPDRFTGSGSGTDFTLTISSVMAEDLAVYYCHQYFTYPRTFGDGTKLEVK
Work on B1 yielded a Periostin (pg/mL), MRCS cells + IL-13 5 ng/mL; antibody at 0.0002 nM [1] of 6960 pg/mL, a Periostin (pg/mL), MRCS cells + IL-13 5 ng/mL; antibody at 0.001 nM [1] of 6050 pg/mL and a Periostin (pg/mL), MRCS cells + IL-13 5 ng/mL; antibody at 0.004 nM [1] of 5010 pg/mL. The Periostin (pg/mL), MRCS cells + IL-13 5 ng/mL; antibody at 0.021 nM [1] was 4540 pg/mL, the Periostin (pg/mL), MRCS cells + IL-13 5 ng/mL; antibody at 0.11 nM [1] was 4570 pg/mL and the Periostin (pg/mL), MRCS cells + IL-13 5 ng/mL; antibody at 0.53 nM [1] was 3660 pg/mL. For the same binder, the Periostin (pg/mL), MRCS cells + IL-13 5 ng/mL; antibody at 2.67 nM [1] was 2620 pg/mL, the Periostin (pg/mL), MRCS cells + IL-13 5 ng/mL; antibody at 13.3 nM [1] was 1260 pg/mL and the TARC (pg/mL), A549 cells + IL-13 + TNFα; antibody at 0.001 nM [1] was 2610 pg/mL. For the same binder, the TARC (pg/mL), A549 cells + IL-13 + TNFα; antibody at 0.004 nM [1] was 3030 pg/mL, the TARC (pg/mL), A549 cells + IL-13 + TNFα; antibody at 0.021 nM [1] was 2770 pg/mL and the TARC (pg/mL), A549 cells + IL-13 + TNFα; antibody at 0.11 nM [1] was 2780 pg/mL. For the same binder, the TARC (pg/mL), A549 cells + IL-13 + TNFα; antibody at 0.53 nM [1] was 2800 pg/mL, the TARC (pg/mL), A549 cells + IL-13 + TNFα; antibody at 2.67 nM [1] was 2240 pg/mL and the TARC (pg/mL), A549 cells + IL-13 + TNFα; antibody at 13.3 nM [1] was 1120 pg/mL. The TARC (pg/mL), A549 cells + IL-13 + TNFα; antibody at 66.7 nM [1] was 348 pg/mL, the VCAM-1 fluorescence intensity, HUVEC + IL-13 0.5 ng/mL + TNFα; antibody at 0.0002 nM [1] was 368 and the VCAM-1 fluorescence intensity, HUVEC + IL-13 0.5 ng/mL + TNFα; antibody at 0.001 nM [1] was 343. For the same binder, the VCAM-1 fluorescence intensity, HUVEC + IL-13 0.5 ng/mL + TNFα; antibody at 0.004 nM [1] was 374, the VCAM-1 fluorescence intensity, HUVEC + IL-13 0.5 ng/mL + TNFα; antibody at 0.021 nM [1] was 403 and the VCAM-1 fluorescence intensity, HUVEC + IL-13 0.5 ng/mL + TNFα; antibody at 0.11 nM [1] was 316. The VCAM-1 fluorescence intensity, HUVEC + IL-13 0.5 ng/mL + TNFα; antibody at 0.53 nM [1] was 286, the VCAM-1 fluorescence intensity, HUVEC + IL-13 0.5 ng/mL + TNFα; antibody at 2.67 nM [1] was 272 and the VCAM-1 fluorescence intensity, HUVEC + IL-13 0.5 ng/mL + TNFα; antibody at 13.3 nM [1] was 223. The mean fluorescence intensity [2] was 20.8, the mean fluorescence intensity [3] was 96.9 and the mean fluorescence intensity [4] was 94. It also gave a mean fluorescence intensity [5] of 49.1, a mean fluorescence intensity [6] of 24.6 and a mean fluorescence intensity [7] of 96. For the same binder, the mean fluorescence intensity [8] was 27.8, the IC50 (read off the curve) [9] was 0.7 nM and the mean fluorescence intensity [10] was 97.6. For the same binder, the IC50 (read off the curve) [11] was 1 nM, the mean fluorescence intensity [12] was 53.3 and the mean fluorescence intensity [13] was 98.3. It also gave a mean fluorescence intensity [14] of 31, a Kd [15] of 1.02 nM and a koff [15] of 0.000271 s⁻¹. It also gave a kon [15] of 267000 M⁻¹ s⁻¹, a mean fluorescence intensity [16] of 27.3 and a Kd [17] of under 90 nM. It also gave a mean fluorescence intensity [18] of 97.5, a mean fluorescence intensity [19] of 83.7 and a mean fluorescence intensity [20] of 22.6. For the same binder, the mean fluorescence intensity [21] was 78.4.

B2: 70F10A10 (lead antibody, mouse hybridoma) (antibody, V domains shown)
VH: B1 VH
VL: B1 VL
For B2, the TARC (pg/mL), A549 cells + IL-13 5 ng/mL + TNFα; antibody at 0.001 nM [1] was 2000 pg/mL, the TARC (pg/mL), A549 cells + IL-13 5 ng/mL + TNFα; antibody at 0.004 nM [1] was 1830 pg/mL and the TARC (pg/mL), A549 cells + IL-13 5 ng/mL + TNFα; antibody at 0.021 nM [1] was 1600 pg/mL. For the same binder, the TARC (pg/mL), A549 cells + IL-13 5 ng/mL + TNFα; antibody at 0.11 nM [1] was 1630 pg/mL, the TARC (pg/mL), A549 cells + IL-13 5 ng/mL + TNFα; antibody at 0.5 nM [1] was 1500 pg/mL and the TARC (pg/mL), A549 cells + IL-13 5 ng/mL + TNFα; antibody at 2.7 nM [1] was 1140 pg/mL. The TARC (pg/mL), A549 cells + IL-13 5 ng/mL + TNFα; antibody at 13.3 nM [1] was 656 pg/mL, the TARC (pg/mL), A549 cells + IL-13 5 ng/mL + TNFα; antibody at 66.7 nM [1] was 207 pg/mL and the mean fluorescence intensity [2] was 19.3. For the same binder, the mean fluorescence intensity [3] was 67.6, the mean fluorescence intensity [4] was 70.8 and the mean fluorescence intensity [5] was 46. The mean fluorescence intensity [6] was 37.8, the mean fluorescence intensity [7] was 72.5 and the mean fluorescence intensity [8] was 39.1. For the same binder, the IC50 (read off the curve) [9] was 0.1 nM, the mean fluorescence intensity [10] was 75.6 and the mean fluorescence intensity [12] was 30.7. It also gave a mean fluorescence intensity [13] of 73.5, a mean fluorescence intensity [14] of 42.3 and a mean fluorescence intensity [16] of 24.7. It also gave a mean fluorescence intensity [18] of 76.7, a mean fluorescence intensity [19] of 51.9 and a mean fluorescence intensity [20] of 20.3. The mean fluorescence intensity [21] was 46.8.

B3: c35H6E1 (mouse-human chimeric IL-13 antibody) (antibody, V domains shown)
VH: QVTLKESGPGILQSSQTLSLTCSFSGFSLSTSNMGVSWIRQPSGKGLEWLAHIYWDDDKRYNPSLESRLTISKDTSRNQVFLKITSVDTADSATYYCARRTNYFSTRDYFDYWGQGTTLTVSS
VL: DIQMTQSPASLSVSVGETVTITCRASENIYSNLVWYQQKQGKSPQLLVYAATKLADGVPSRFSGSGSGTQYSLKINSLQSEDFGSYYCQHFWGFPWTFGGGTKLEIK
B3 showed an OD450 nm [22] of 2.97, an OD450 nm [23] of 0.11 and an OD450 nm [24] of 0.8. For the same binder, the OD450 nm [25] was 3.31, the OD450 nm [26] was 3.23 and the OD450 nm [27] was 0.23. The OD450 nm [28] was 2.13, the Kd [15] was 0.336 nM and the koff [15] was 0.000445 s⁻¹. It also gave a kon [15] of 1.33e+06 M⁻¹ s⁻¹ and a Kd [17] of under 90 nM.
